This test deals with full-length GALLS (GALLS-FL) fused in frame with LexA in yeast bait vector pEG202 (pE3462). Put plainly: cell-based or functional assay.

Substance “LSH10 (GIP, GALLS Interacting Protein; At2g42610) expressed from the yeast two-hybrid prey vector pGAD424 (from UniProt Q9S7R3 1-177)” displayed a β-galactosidase units (β-galactosidase units) of 6.

The values above are taken from patent US10526611.
